Results published in publication PMC8660260 (2021).

Experiments:
[1] = molecular target: T1, NSP12 peptide on HLA-A*02:01 (human); test: activation reporter or marker
T1 peptide: TMADLVYAL

[2] = molecular target: T2, NSP12 peptide on HLA-A*02:01 (human); test: activation reporter or marker
T2 peptide: FVDGVPFVV

B1: CoVTCR 12 (TCR)
alpha TRAV17 TRAJ57 CDR3: CATVLPTQGGSEKLVF
beta TRBV18 TRBJ1-1 CDR3: CASSLTVNMNTEAFF
B1: recognises [1].

B2: CoVTCR 18 (TCR)
alpha TRAV12-1 TRAJ45 CDR3: CVLPSGGGADGLTF
beta TRBV5-1 TRBJ2-1 CDR3: CASTGLAGGPYNEQFF
B2: recognises [2].

B3: CoVTCR 19 (TCR)
alpha TRAV35 TRAJ43 CDR3: CAGQLARDMRF
beta TRBV13 TRBJ2-7 CDR3: CASRWAGGTAYEQYF
B3: recognises [2].
